The target of this data set is PABP (PABPC1) (Homo sapiens, UniProt P11940 1-383). The data set is described as follows: fluorescence polarization/anisotropy; text gives nM; Fig. 2d legend prints μM; FP: 50 mM HEPES, 5 mM EDTA, 250 mM KCl, 10 mM DTT, 0.5 mg/mL BSA, 0.05% Tween-20, 0.1 mg/mL yeast RNA, 0.5 nM Cy3-RNA (pH and temperature not stated). EMSA: 10. Particulars: protein: recombinant. (Fluorescence polarisation rises when a labelled molecule tumbles more slowly, as on binding a larger partner.)
Sequence of PABP (PABPC1) (P11940 1-383): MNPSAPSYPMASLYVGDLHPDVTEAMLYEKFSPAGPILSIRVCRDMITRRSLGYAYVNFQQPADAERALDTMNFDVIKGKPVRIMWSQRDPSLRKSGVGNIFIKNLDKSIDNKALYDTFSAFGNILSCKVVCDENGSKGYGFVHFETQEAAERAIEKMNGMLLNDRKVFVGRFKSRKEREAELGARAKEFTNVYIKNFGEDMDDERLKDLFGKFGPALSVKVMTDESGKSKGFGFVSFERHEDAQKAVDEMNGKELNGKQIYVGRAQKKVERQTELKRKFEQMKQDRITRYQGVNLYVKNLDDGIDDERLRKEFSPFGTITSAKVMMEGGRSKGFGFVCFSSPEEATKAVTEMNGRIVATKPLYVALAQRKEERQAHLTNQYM

B1: Poly(A) SPOT-ON (XNA)
strand: AAAAAAAAAAAA
modifications: 2'-O-methyl throughout; phosphorothioate at the 5' and 3' terminal linkages (A*AAAAAAAAAA*A)
As a reminder, the Kd is the constant that tells how readily two partners part at equilibrium. B1: the Kd was found to be 301 ± 41 nM.

AAAAAAAAAAAA (ssRNA) [unmodified 12-base Poly(A) RNA]: the Kd came to 261 ± 54 nM.
